Laboratory results: IntAct's records for PubMed 16882004

B1: Neuronal cell adhesion molecule (Mus musculus), Q810U4 (parent)
chain: MQLKIMPKKKHLSAGGVPLILFLCQMISALDVPLDLVQPPTITQQSPKDYIIDPRENIVIQCEAKGKPPPSFSWTRNGTHFDIDKDPLVTMKPGSGTLVINIMSEGKAETYEGVYQCTARNERGAAVSNNIVVRPSRSPLWTKERLEPIVLQNGQSLVLPCRPPIGLPPAIIFWMDNSFQRLPQSERVSQGLNGDLYFSNVLPEDTREDYICYARFNHTQTIQQKQPISLKVISVDELNDTIAANLSDTEFYGAKSSKERPPTFLTPEGNESHKEELRGNVLSLECIAEGLPTPIIYWIKEDGMLPANRTFYRNFKKTLQITHVSEADSGNYQCIAKNALGAVHHTISVTVKAAPYWIVAPQNLVLSPGENGTLICRANGNPKPRISWLTNGVPIEIALDDPSRKIDGDTIIFSNVQESSSAVYQCNASNKYGYLLANAFVNVLAEPPRILTSANTLYQVIANRPALLDCAFFGSPMPTIEWFKGTKGSALHEDIYVLHDNGTLEIPVAQKDSTGTYTCVARNKLGMAKNEVHLEIKDPTRIIKQPEYAVVQRGSKVSFECRVKHDHTLIPTIMWLKDNGELPNDERFSTDKDHLVVSDVKDDDGGTYTCTANTTLDSASASAVLRVVAPTPTPAPIYDVPNPPFDLELTNQLDKSVQLTWTPGDDNNSPITKFIIEYEDAMHDAGLWRHQAEVSGTQTTAQLKLSPYVNYSFRVMAENSIGRSMPSEASEQYLTKAAEPDQNPMAVEGLGTEPDNLVITWKPLNGFQSNGPGLQYKVSWRQKDGDDEWTSVVVANVSKYIVSGTPTFVPYLIKVQALNDVGFAPEPAAVMGHSGEDLPMVAPGNVRVSVVNSTLAEVHWDPVPPKSVRGHLQGYRIYYWKTQSSSKRNRRHIEKKILTFQGTKTHGMLPGLQPYSHYALNVRVVNGKGEGPASTDRGFHTPEGVPSAPSSLKIVNPTLDSLTLEWDPPSHPNGILTEYILQYQPINSTHELGPLVDLKIPANKTRWTLKNLNFSTRYKFYFYAQTSVGPGSQITEEAITTVDEAGIPPPDVGAGKGKEEWRKEIVNGSRSFFGLKGLMPGTAYKVRVGAEGDSGFVSSEDVFETGPAMASRQVDIATQGWFIGLMCAVALLILILLIVCFIRRNKGGKYPVKEKEDAHADPEIQPMKEDDGTFGEYSDAEDHKPLKKGSRTPSDRTVKKEDSDDSLVDYGEGVNGQFNEDGSFIGQYSGKKEKEPAEGNESSEAPSPVNAMNSFV

Variants of: B1
Settings: with dlg1_mouse Dlg1, Q811D0
dlg1_mouse Dlg1, Q811D0, sequence (Q811D0 whole entry): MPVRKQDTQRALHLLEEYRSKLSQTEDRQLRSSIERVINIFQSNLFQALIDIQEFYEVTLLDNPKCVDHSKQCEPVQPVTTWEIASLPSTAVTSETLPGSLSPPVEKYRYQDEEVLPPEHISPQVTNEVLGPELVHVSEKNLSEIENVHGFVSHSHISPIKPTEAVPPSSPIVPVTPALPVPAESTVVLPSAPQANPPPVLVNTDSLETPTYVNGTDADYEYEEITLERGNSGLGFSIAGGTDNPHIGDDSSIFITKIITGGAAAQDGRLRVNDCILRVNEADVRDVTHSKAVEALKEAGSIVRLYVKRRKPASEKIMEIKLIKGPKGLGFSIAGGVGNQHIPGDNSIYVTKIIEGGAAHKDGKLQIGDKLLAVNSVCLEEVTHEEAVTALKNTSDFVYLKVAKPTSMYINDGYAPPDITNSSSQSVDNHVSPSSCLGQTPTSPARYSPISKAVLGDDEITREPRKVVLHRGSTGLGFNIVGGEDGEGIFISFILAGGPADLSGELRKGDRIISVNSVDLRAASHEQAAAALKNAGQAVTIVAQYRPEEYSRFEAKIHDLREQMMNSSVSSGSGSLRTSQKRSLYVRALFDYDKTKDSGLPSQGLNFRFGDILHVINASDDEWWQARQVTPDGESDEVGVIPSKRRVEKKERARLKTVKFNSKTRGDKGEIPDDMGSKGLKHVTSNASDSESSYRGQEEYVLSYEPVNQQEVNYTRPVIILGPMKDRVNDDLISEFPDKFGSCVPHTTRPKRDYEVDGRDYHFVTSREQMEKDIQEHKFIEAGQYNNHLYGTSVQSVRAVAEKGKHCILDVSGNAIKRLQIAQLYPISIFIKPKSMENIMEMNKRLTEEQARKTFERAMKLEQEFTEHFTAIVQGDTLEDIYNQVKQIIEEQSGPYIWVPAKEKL

| effect of a mutation on the interaction | Variant |
| --- | --- |
| disrupting interaction | V1256A |
